Among the data in patent publication US20090155255A1 (published 2009) are Kd and IC50 values, retold here.

As a reminder, the Kd is the free concentration of one partner at which half of the binding sites on the other are occupied at equilibrium, for simple one-to-one binding. A word on the IC50: it is the concentration needed to halve the response being measured. A lower IC50 goes with greater potency.

Assay [1] addresses T1, soluble CD23 antigen (soluble and monomeric form) (UniProt P06734 150-321).
T1 chain: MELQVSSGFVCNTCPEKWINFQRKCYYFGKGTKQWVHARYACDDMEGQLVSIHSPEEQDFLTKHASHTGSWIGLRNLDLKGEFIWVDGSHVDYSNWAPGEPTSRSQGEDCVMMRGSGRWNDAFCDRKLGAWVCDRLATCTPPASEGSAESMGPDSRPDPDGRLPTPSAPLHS
Kind of assay: DELFIA.

In assay [2] the target is T1, soluble CD23 antigen (soluble and …). Kind of assay: Biacore. Background: In SPR one partner is held on a chip, and binding of the other changes the refractive index at the surface.
Assay [3] shares this target. Nature of the assay: FRET competition.
The target of assay [4] is IEH-241. Nature of the assay: DELFIA.
The target of assay [5] is IEH-248. Kind of assay: DELFIA.
For assay [6], the target named is IEH-251. Kind of assay: DELFIA.
Assay [7] deals with IEH-245. Nature of the assay: DELFIA.
For assay [8], the target named is IEH-250. Nature of the assay: DELFIA.
Assay [9] deals with IEH-243. Kind of assay: DELFIA.
Assay [10] has as its target IEH-239. Kind of assay: DELFIA.
Assay [11] deals with IEH-241. Nature of the assay: Biacore.
The target in assay [12] is IEH-248. Nature of the assay: Biacore.
Assay [13] concerns the target IEH-251. Kind of assay: Biacore.
The target in assay [14] is IEH-245. Kind of assay: Biacore.
Assay [15] addresses IEH-250. Nature of the assay: Biacore.
Assay [16] addresses IEH-243. Kind of assay: Biacore.

B1: stabilized p5E8 pIEH252 scFv (scFv)
scFv: DIQMTQSPSSLSASVGDRVTITCRASQDIRYYLNWYQQKPGKAPKLLIYSASSLQSGVPSRFSGSGSGTEFTLTVSSLQPEDAATYYCLQVYSTPRTFGQGTKVEIKGGGGSGGGGSGGGGSEVQLVQSGGGLAKPGGSLRLSCAASGFRFTFSNYYMDWVRQAPGQGLEWVGRISSSGDPTWYADSVKGRFTISRDNAKNTLFLQMNSLRAEDTAVYYCASLTTGSDSWGQGVLVTVSS
As for B1, the Kd in assay [1] was 1.2 nM; in assay [2], 0.8 nM. In [3], the IC50 stood at 0.052 µg/mL.

B2: stabilized p5E8 pIEH246 scFv (scFv)
scFv: DIQMTQSPSSLSASVGDRVTITCRASQDIRYYLNWYQQKPGKAPKLLIYSASSLQSGVPSRFSGSGSGTEFTLTVSSLQPEDAATYYCLQVYSTPRTFGQGTKVEIKGGGGSGGGGSGGGGSEVQLVQSGGGLAKPGGSLRLSCAASGFRFTFNNYYMDWVRQAPGQGLEWVGRISSSGDHTWYADSVKGRFTISRENAKNTLFLQMNSLRAEDTAVYYCASLTTGSDSWGQGVLVTVSS
Take B2: the dissociation constant Kd in [1] worked out at 1 nM; in assay [2], 0.9 nM. Besides, the IC50 in assay [3] came to 0.061 µg/mL.

B3: CD23 (receptor)
chain: MELQVSSGFVCNTCPEKWINFQRKCYYFGKGTKQWVHARYACDDMEGQLVSIHSPEEQDFLTKHASHTGSWIGLRNLDLKGEFIWVDGSHVDYSNWAPGEPTSRSQGEDCVMMRGSGRWNDAFCDRKLGAWVCDRLATCTPPASEGSAESMGPDSRPDPDGRLPTPSAPLHS
Turning to B3, the equilibrium dissociation constant (Kd) in [4] was determined as 1.2 nM; in [5] it was 2.4 nM; in assay [6], 1.5 nM; in assay [7], 1 nM; in assay [8], 2.6 nM; in [9] it was 1.2 nM. Further, the Kd was 3 nM in assay [10]; 4.6 nM in [11]; 1.3 nM in assay [12]; 3.2 nM in assay [13]; 1.1 nM in [14]; 4.3 nM in assay [15]. The molecule also registered a Kd in [16] of 2.8 nM.
